From the supplement of paper PMC12667976
± gives the standard error.

B1: library; numbered along this chain (parent)
chain: MATDAALRRLLRLHRTEIAVAVDSAFPLLHALADHDVVPEDKFQETLHLKEKEGCPQAFHALLSWLLTQDSTAILDFWRVLFKDYNLERYGRLQPILDSFPKDVDLSQPRKGRKPPAVPKALVPPPRLPTKRKASEEARAAAPAALTPRGTASPGSQLKAKPPKKPESSAEQQRLPLGNGIQTMSASVQRAVAMSSGDVPGARGAVEGILIQQVFESGGSKKCIQVGGEFYTPSKFEDSGSGKNKARSSSGPKPLVRAKGAQGAAPGGGEARLGQQGSVPAPLALPSDPQLHQKNEDECAVCRDGGELICCDGCPRAFHLACLSPPLREIPSGTWRCSSCLQATVQEVQPRAEEPRPQEPPVETPLPPGLRSAGEEVRGPPGEPLAGMDTTLVYKHLPAPPSAAPLPGLDSSALHPLLCVGPEGQQNLAPGARCGVCGDGTDVLRCTHCAAAFHWRCHFPAGTSRPGTGLRCRSCSGDVTPAPVEGVLAPSPARLAPGPAKDDTASHEPALHRDDLESLLSEHTFDGILQWAIQSMARPAAPFPS

Variants of: B1
Test: AIRE transcriptional activation functional score (insulin promoter-GFP; nonsense median 0, synonymous median 1) (normalised score); higher = higher AIRE activity (more reporter activation)
Details: with insulin promoter-GFP reporter in HEK293
Protocol: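 Deep mutational scan of full-length human AIRE (codon-optimized cDNA, DT-POPCode NNN libraries over three regions) integrated at a Bxb1 landing pad in HEK293 cells carrying an insulin core promoter-GFP reporter at a Flp-In site. Cells were sorted for the top 10% GFP about 14 days after transfection. Variant frequency log-ratios (select vs non-select, TileSeq) were rescaled so that the nonsense median is 0 and the synonymous median is 1, then averaged over biological replicates.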

Variant	AIRE transcriptional activation functional score
P539F	0.224 ± 0.097
P360E	1.22 ± 0.099
F453Y	0.32 ± 0.23
A160H	0.574 ± 0.035
C55D	0.495 ± 0.29
G228E	0.668 ± 0.36
L495V	1.07 ± 0.22
W455A	1.1 ± 0.27
A537V	0.891 ± 0.073
Y90H	0.364 ± 0.19
P289C	1.08 ± 0.17
R494A	0.321 ± 0.24
E17K	0.389 ± 0.19
E17M	0.896 ± 0.27
N295F	0.892 ± 0.34
N295T	1.14 ± 0.23
S195Y	0.427 ± 0.11
G274D	1.14 ± 0.15
G274H	1.4 ± 0.14
G274W	1.46 ± 0.045
K83Y	-0.194 ± 0.5

Variant	AIRE transcriptional activation functional score
K83T	0.432 ± 0.38
L470Q	1.11 ± 0.13
R513V	0.873 ± 0.29
R513W	0.733 ± 0.048
D439V	0.869 ± 0.19
C472G	0.0511 ± 0.1
K501G	0.947 ± 0.19
T524A	0.636 ± 0.42
T524I	0.0345 ± 0.14
P400A	1.56 ± 0.13
L177V	0.75 ± 0.67
G269E	1.1 ± 0.19
K165T	-0.814 ± 0.87
H60D	-0.0281 ± 0.26
P350D	1.09 ± 0.12
P350W	1.02 ± 0.042
P166V	0.921 ± 0.76
L28Y	-0.212 ± 0.28
L28P	0.00884 ± 0.33
P367S	1.13 ± 0.32
P380S	0.998 ± 0.29

Variant	AIRE transcriptional activation functional score
P380M	1.34 ± 0.077
F543Q	0.317 ± 0.17
P143M	1.02 ± 0.033
L385A	0.341 ± 0.33
G54D	0.773 ± 0.27
A510Y	0.861 ± 0.11
T183P	0.392 ± 0.43
T334V	0.952 ± 0.29
L529S	-0.21 ± 0.34
L529V	0.905 ± 0.14
L29T	-0.208 ± 0.21
H512V	1.35 ± 0.069
H512Q	0.273 ± 0.4
G268W	1.62 ± 0.06
S372R	1.16 ± 0.086
S372C	1.31 ± 0.069
L210A	0.581 ± 0.49
V199W	0.623 ± 0.032
V199Y	1.4 ± 0.091
T468G	1.08 ± 0.33
G306I	0.377 ± 0.19

Variant	AIRE transcriptional activation functional score
Q213M	-0.306 ± 0.13
D36F	-0.636 ± 0.15
P542T	0.963 ± 0.13
A6G	1.2 ± 0.27
D478E	1.09 ± 0.098
N427E	1.12 ± 0.12
K221W	0.337 ± 0.028
K221Q	0.621 ± 0.34
R113D	0.648 ± 0.2
A193D	1.03 ± 0.043
A202Y	1.13 ± 0.13
H319W	0.996 ± 0.069
T441S	1.02 ± 0.28
R139T	0.641 ± 0.57
R139S	0.893 ± 0.49
L62I	-0.601 ± 0.32
L62D	-0.0278 ± 0.14
E171W	1.93 ± 0.073
F318N	1.45 ± 0.063
C302F	0.63 ± 0.18
